{"source": "patent US20140271469A1", "about": "(Stanford University, published 2014)", "key": {"[1]": {"molecular_target": "T1, Recombinant human integrin αvβ6 (human, UniProt P06756 31-992; P18564 22-707)", "T1 construct": "Bought soluble heterodimer; also called alpha-v-beta-6; avb6", "assay": "flow cytometry, peptide displayed on yeast, soluble integrin αvβ6"}, "[2]": {"molecular_target": "Recombinant human integrin αvβ3 (human, UniProt P06756 31-992; P05106 27-718)", "sequence (P05106 27-718, one chain of several)": "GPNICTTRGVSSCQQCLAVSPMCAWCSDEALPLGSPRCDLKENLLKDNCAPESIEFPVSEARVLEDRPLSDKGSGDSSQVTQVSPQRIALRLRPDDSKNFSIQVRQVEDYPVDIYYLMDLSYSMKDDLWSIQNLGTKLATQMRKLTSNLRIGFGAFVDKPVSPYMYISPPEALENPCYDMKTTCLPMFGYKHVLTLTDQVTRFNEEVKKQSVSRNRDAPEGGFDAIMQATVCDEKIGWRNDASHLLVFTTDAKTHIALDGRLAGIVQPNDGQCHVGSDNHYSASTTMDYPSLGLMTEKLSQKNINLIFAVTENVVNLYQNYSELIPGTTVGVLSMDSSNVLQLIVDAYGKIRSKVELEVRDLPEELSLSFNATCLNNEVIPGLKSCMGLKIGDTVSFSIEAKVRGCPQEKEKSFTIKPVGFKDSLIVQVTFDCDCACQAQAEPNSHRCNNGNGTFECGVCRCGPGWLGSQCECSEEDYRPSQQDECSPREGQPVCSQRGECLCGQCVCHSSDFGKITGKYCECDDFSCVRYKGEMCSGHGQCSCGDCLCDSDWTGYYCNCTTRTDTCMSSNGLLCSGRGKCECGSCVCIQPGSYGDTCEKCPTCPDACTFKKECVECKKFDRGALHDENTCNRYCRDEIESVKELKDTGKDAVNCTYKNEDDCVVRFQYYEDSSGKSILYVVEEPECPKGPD", "assay": "flow cytometry, peptide displayed on yeast, soluble integrin (FIG. 1C)"}, "[3]": {"molecular_target": "Recombinant human integrin αvβ5 (human, UniProt P06756 31-992; P18084 24-719)", "sequence (P18084 24-719, one chain of several)": "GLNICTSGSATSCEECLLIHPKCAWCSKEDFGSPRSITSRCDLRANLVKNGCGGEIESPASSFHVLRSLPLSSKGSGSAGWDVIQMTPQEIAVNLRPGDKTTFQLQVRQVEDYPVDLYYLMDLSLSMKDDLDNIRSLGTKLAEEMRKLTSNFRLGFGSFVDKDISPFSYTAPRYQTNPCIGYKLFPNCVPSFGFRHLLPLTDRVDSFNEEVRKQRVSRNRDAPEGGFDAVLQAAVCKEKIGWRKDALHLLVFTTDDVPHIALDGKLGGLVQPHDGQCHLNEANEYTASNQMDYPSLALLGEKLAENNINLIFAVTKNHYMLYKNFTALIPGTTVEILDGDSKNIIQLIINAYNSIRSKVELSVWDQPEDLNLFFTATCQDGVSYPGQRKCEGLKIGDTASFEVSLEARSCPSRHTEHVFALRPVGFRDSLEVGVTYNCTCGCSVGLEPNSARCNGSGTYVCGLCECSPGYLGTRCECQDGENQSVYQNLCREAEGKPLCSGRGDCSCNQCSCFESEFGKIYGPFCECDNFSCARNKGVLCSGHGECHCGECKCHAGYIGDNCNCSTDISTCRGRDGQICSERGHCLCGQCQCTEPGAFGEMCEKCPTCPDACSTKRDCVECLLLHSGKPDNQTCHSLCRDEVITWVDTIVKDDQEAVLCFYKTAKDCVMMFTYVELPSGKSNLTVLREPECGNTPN", "assay": "flow cytometry, peptide displayed on yeast, soluble integrin (FIG. 1C)"}, "[4]": {"molecular_target": "Recombinant human integrin α5β1 (human, UniProt P08648 42-995; P05556 21-728)", "sequence (P08648 42-995, chain 1 of 2)": "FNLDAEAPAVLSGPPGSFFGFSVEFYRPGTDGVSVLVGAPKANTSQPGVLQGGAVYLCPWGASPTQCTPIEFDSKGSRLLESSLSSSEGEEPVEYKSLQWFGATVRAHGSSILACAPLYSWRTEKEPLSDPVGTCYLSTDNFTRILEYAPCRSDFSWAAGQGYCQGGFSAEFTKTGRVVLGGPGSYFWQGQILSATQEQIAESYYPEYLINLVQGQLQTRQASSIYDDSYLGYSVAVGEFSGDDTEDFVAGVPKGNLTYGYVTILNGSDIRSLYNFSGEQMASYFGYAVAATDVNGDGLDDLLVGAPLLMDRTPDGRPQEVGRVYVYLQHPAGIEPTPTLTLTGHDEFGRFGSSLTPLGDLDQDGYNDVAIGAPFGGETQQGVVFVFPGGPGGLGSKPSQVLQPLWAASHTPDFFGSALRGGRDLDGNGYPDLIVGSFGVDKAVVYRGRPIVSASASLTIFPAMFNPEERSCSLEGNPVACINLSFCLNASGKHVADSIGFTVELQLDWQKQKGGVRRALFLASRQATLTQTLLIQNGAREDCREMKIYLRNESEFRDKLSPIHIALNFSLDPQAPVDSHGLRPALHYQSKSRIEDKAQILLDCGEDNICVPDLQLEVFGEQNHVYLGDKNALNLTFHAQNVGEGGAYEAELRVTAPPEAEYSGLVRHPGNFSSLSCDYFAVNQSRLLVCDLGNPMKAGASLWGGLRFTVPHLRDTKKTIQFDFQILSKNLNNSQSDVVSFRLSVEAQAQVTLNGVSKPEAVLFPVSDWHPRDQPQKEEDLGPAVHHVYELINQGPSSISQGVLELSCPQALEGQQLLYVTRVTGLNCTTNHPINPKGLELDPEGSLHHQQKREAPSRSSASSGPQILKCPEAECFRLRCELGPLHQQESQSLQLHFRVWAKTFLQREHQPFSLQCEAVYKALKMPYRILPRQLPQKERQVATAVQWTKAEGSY", "sequence (P05556 21-728, chain 2 of 2)": "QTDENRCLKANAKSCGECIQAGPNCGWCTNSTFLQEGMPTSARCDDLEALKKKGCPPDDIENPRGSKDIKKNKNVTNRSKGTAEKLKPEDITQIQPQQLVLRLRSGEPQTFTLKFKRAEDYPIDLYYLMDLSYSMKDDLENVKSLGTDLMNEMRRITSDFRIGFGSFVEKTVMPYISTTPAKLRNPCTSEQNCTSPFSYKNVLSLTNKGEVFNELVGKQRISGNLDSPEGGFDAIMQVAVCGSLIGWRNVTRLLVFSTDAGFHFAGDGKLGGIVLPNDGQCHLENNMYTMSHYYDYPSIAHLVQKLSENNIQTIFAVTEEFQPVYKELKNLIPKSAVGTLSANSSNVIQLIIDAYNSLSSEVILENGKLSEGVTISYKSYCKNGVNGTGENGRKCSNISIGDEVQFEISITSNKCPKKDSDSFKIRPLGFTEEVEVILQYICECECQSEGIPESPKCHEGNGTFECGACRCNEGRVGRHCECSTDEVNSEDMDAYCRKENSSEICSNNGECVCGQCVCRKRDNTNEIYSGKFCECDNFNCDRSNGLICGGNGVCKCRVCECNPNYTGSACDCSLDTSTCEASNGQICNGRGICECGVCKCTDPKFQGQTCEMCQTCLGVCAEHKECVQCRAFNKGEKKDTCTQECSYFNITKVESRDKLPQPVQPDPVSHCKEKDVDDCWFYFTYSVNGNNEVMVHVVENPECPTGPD", "assay": "flow cytometry, peptide displayed on yeast, soluble integrin (FIG. 1C)"}, "[5]": {"molecular_target": "T1, Recombinant human integrin αvβ6", "assay": "flow cytometry, 10 nM integrin αvβ6, relative to R02"}, "[6]": {"molecular_target": "T1, Recombinant human integrin αvβ6", "assay": "flow cytometry of yeast-displayed grafts with integrin αvβ6 (data not shown)"}, "[7]": {"molecular_target": "T1, Recombinant human integrin αvβ6", "assay": "binding of scrambled peptide to soluble integrin αvβ6, normalised to R02 at 1 nM (FIG. 3A)"}, "[8]": {"molecular_target": "T2, Native integrin αvβ6 on cells (BxPC-3, A431) (human, UniProt P06756 31-1048; P18564 22-788)", "T2 construct": "whole, on cells; The cells also carry other integrins; also called integrin αvβ6 expressing cells; target expressing cells", "assay": "cell uptake assay with radiolabeled peptide (FIG. 5)"}, "[9]": {"molecular_target": "T3, Recombinant human integrin αvβ6 (human), P06756", "T3 chain 1": "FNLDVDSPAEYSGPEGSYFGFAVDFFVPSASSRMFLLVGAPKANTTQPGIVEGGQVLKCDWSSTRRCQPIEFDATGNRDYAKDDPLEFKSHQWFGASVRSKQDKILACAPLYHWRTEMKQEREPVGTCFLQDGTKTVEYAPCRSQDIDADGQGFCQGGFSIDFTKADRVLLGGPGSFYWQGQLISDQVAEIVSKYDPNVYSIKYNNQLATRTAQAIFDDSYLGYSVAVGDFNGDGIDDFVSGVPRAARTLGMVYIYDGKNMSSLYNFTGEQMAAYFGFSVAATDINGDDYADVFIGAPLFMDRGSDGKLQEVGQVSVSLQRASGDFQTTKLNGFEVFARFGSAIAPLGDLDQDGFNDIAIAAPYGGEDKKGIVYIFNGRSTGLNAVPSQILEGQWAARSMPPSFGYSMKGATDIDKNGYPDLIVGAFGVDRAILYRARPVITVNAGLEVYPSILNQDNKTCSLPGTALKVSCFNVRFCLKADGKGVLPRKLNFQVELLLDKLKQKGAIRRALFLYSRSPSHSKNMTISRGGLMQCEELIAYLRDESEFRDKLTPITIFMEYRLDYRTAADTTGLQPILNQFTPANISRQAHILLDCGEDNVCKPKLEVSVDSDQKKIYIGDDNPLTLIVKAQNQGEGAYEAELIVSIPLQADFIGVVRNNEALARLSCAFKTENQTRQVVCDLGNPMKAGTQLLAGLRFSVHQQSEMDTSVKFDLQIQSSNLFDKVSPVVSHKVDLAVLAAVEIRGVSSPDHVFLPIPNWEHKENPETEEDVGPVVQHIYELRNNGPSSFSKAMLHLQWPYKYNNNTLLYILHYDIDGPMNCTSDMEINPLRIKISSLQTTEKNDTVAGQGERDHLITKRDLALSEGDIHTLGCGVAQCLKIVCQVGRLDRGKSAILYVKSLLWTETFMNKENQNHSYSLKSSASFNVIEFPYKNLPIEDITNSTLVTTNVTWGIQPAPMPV", "T3 chain 2": "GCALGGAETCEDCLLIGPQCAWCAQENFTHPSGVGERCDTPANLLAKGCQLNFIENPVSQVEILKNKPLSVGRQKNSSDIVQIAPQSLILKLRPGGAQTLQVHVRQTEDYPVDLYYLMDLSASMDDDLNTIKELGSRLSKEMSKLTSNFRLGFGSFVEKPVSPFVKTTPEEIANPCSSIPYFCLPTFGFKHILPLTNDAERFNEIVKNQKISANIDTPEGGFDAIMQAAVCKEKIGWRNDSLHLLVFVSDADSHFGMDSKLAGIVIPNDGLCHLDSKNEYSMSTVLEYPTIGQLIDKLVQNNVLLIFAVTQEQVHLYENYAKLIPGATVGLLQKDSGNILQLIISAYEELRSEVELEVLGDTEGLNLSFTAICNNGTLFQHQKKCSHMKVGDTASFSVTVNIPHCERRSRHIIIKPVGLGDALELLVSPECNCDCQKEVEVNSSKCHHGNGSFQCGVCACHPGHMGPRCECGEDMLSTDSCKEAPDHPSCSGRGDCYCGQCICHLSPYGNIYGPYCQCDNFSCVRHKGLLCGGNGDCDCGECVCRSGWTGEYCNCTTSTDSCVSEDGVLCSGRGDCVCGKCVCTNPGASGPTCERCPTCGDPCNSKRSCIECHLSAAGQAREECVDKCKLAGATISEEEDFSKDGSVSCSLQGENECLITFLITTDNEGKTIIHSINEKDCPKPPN", "assay": "cell sorting study, peptide expressed on the surface of yeast"}, "[10]": {"molecular_target": "T1, Recombinant human integrin αvβ6", "assay": "cell sorting study, peptide expressed on the surface of yeast"}}, "note": "Ends that are not written are not given here. * marks the point of attachment. DOTA = O=C(O)CN1CCN(CC(=O)O)CCN(CC(=O)*)CCN(CC(=O)O)CC1", "data": [{"binder": "GCRSLARTDLDHLRGRCRRDSDCPGACICRGNGYCG (also called activity '2' in the R0 scaffold)", "note": "[R02]", "values": [{"measurement": "Kd", "setting": "[1]", "result": 3.2, "unit": "nM"}, {"measurement": "binding result", "setting": "[2]", "result": "no binding"}, {"measurement": "binding result", "setting": "[3]", "result": "no binding"}, {"measurement": "binding result", "setting": "[4]", "result": "no binding"}]}, {"binder": "GCRSLARTDLDHLRGRCRRDSDCRGACICRGNGYCG (also called activity '2' in arginine-rich scaffold R2)", "note": "[R22]", "values": [{"measurement": "binding result", "setting": "[5]", "result": "binds"}]}, {"binder": "GCRLVFRTDLDHLRGRCRRDSDCPGACICRGNGYCG (also called activity '3' in the R0 scaffold)", "note": "[R03]", "values": [{"measurement": "Kd", "setting": "[1]", "result": 3.6, "unit": "nM"}, {"measurement": "binding result", "setting": "[2]", "result": "no binding"}, {"measurement": "binding result", "setting": "[3]", "result": "no binding"}, {"measurement": "binding result", "setting": "[4]", "result": "no binding"}]}, {"binder": "GCRSLARTDLDHLRGRCRRDRDCPGACICRGNGYCG (also called activity '2' in arginine-rich scaffold R1)", "note": "[R12]", "values": [{"measurement": "binding result", "setting": "[5]", "result": "binds"}]}, {"binder": "GCRSLARTDLDHLRGRCRRDRDCRGACICRGNGYCG (also called activity '2' in arginine-rich scaffold R3)", "note": "[R32]", "values": [{"measurement": "binding result", "setting": "[5]", "result": "binds"}]}, {"binder": "GCRSLARTDLDHLRGRCEEDSDCPGACICEGNGYCG (also called activity '2' in glutamic acid-rich scaffold E4)", "note": "[E42]", "values": [{"measurement": "binding result", "setting": "[5]", "result": "binds"}]}, {"binder": "GCRSLARTDLDHLRGRCRRDSDCPGACICEGNGYCG (also called activity '2' in glutamic acid-rich scaffold E1)", "note": "[E12]", "values": [{"measurement": "binding result", "setting": "[5]", "result": "binds"}]}, {"binder": "GCGHPRTDLASLAKRCRRDSDCPGACICRGNGYCG (also called graft 2)", "note": "[G2]", "values": [{"measurement": "binding result", "setting": "[6]", "result": "binds"}]}, {"binder": "GCGGHPRTDLASLAKRCRRDSDCPGACICRGNGYCG (also called graft 3)", "note": "[G3]", "values": [{"measurement": "binding result", "setting": "[6]", "result": "binds"}]}, {"binder": "GCRSLARTDLDHLRDRCSSDSDCLAECICLENGFCG (disulfide (positions not given here); not fully specified (bridges); also: three disulfide bonds, places not given here, also called activity '2' in the S0 scaffold)", "note": "[S02]", "values": [{"measurement": "Kd", "setting": "[1]", "result": 6, "unit": "nM"}, {"measurement": "binding result", "setting": "[2]", "result": "no binding"}, {"measurement": "binding result", "setting": "[3]", "result": "no binding"}, {"measurement": "binding result", "setting": "[4]", "result": "no binding"}]}, {"binder": "GCRLVFRTDLDHLRGRCSSDSDCLAECICLENGFCG (It says only that activity '3' was tested in the S0 scaffold; The chain is composed here from the loop of R03 and the scaffold of S02, and the residue limits were counted by me; also called activity '3' in the S0 scaffold)", "note": "[S03]", "values": [{"measurement": "Kd", "setting": "[1]", "result": 3.1, "unit": "nM"}, {"measurement": "binding result", "setting": "[2]", "result": "no binding"}, {"measurement": "binding result", "setting": "[3]", "result": "no binding"}, {"measurement": "binding result", "setting": "[4]", "result": "no binding"}]}, {"binder": "GCRSLARDTLDHLRDRCSSDSDCLAECICLENGFCG (also called scrambled S02)", "note": "[scS02]", "values": [{"measurement": "binding result", "setting": "[7]", "result": "no binding (tested: 100 nM and 300 nM integrin αvβ6)"}]}, {"binder": "GCILNMRTDLGTLLFRCSSDSDCLAECICLENGFCG (It says only that activity '1' was tested in the S0 scaffold; also called activity '1' in the S0 scaffold)", "note": "[S01]", "values": [{"measurement": "Kd", "setting": "[1]", "result": 6.5, "unit": "nM"}, {"measurement": "binding result", "setting": "[2]", "result": "no binding"}, {"measurement": "binding result", "setting": "[3]", "result": "no binding"}, {"measurement": "binding result", "setting": "[4]", "result": "no binding"}]}, {"binder": "{DOTA}-GCRSLARTDLDHLRGRCRRDSDCPGACICRGNGYCG (cysteine pairing not given here; also: 64Cu complex of DOTA, also called 64Cu-DOTA-labeled R02)", "note": "[64Cu-DOTA-R02]", "values": [{"measurement": "binding result", "setting": "[8]", "result": "binds"}]}, {"binder": "GCILNRRTDLGTLLFRCRRDSDCPGACICRGNGYCG (modifications not checked)", "note": "[MΔR]", "values": [{"measurement": "Kd", "setting": "[9]", "result": 0.95, "unit": "nM"}]}, {"binder": "GCILNMRTDLGTLLFRCRRDSDCPGACICRGNGYCG (also called wild-type R01; wt)", "note": "[R01]", "values": [{"measurement": "Kd", "setting": "[10]", "result": 1.07, "unit": "nM"}, {"measurement": "Kd", "setting": "[1]", "result": 3.6, "unit": "nM"}, {"measurement": "binding result", "setting": "[4]", "result": "no binding"}]}, {"binder": "GCILNGRTDLGTLLFRCRRDSDCPGACICRGNGYCG (modifications not checked)", "note": "[MΔG]", "values": [{"measurement": "Kd", "setting": "[9]", "result": 1.24, "unit": "nM"}]}, {"binder": "GCILNMRDTLGTLLFRCRRDSDCPGACICRGNGYCG (also called scrambled R01)", "note": "[scR01]", "values": [{"measurement": "binding result", "setting": "[7]", "result": "no binding (tested: 100 nM and 300 nM integrin αvβ6)"}]}, {"binder": "GCILNWRTDLGTLLFRCRRDSDCPGACICRGNGYCG (also called R01 tryptophan substitution)", "note": "[MΔW]", "values": [{"measurement": "Kd", "setting": "[10]", "result": 1.69, "unit": "nM"}]}]}
